Assay results taken from patent US20110129478A1.

Key:
[1] = target: human CD179b protein on the cell membrane surface of human cancer cell lines (human) (UniProt P15814); experiment: cell-based or functional assay
[2] = target: human CD179b protein on the cell membrane surface of human cancer cell lines (human) (UniProt P15814); experiment: flow cytometry on human cancer cell lines expressing CD179b, against mouse IgG2a isotype control

Chain of UniProt P15814 (P15814 38-213): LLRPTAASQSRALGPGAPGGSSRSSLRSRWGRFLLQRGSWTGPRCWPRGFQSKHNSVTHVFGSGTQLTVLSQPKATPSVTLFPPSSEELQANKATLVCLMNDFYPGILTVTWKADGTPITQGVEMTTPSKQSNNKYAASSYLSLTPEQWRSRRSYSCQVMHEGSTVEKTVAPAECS

ADCC activity (chromium 51 release), BDCM cells [1]: 32.3% | ADCC activity (chromium 51 release), Namalwa cells [1]: 32.6% | ADCC activity (chromium 51 release), RPMI1788 cells [1]: 28.3% | CDC activity (chromium 51 release), BDCM cells [1]: 21.2% | CDC activity (chromium 51 release), Namalwa cells [1]: 30.5% | CDC activity (chromium 51 release), RPMI1788 cells [1]: 30.5% | fluorescence intensity higher than that of the isotype control [2]: > 10%
Substance: mouse anti-human CD179b antibody (clone name: GA170; manufactured by Santa Cruz Biotechnology)
